One may read the Kd as the concentration at which binding is half-saturated. For orientation: IC50 means the concentration at which inhibition is half-maximal. A higher IC50 goes with weaker potency in that assay. What is called Km is the substrate concentration at which the rate is half of its maximum. In general, kcat refers to the maximal rate divided by the concentration of active sites.

This is an account of results in PMC9950535, “Divalent metal cofactors differentially modulate RadA-mediated strand invasion and exchange in Saccharolobus solfataricus” (Bioscience Reports, 2023).

Series [1] deals with T1, SsoRadA (Saccharolobus solfataricus, UniProt Q55075).
T1 construct: gene radA
T1 sequence (Q55075 1-324): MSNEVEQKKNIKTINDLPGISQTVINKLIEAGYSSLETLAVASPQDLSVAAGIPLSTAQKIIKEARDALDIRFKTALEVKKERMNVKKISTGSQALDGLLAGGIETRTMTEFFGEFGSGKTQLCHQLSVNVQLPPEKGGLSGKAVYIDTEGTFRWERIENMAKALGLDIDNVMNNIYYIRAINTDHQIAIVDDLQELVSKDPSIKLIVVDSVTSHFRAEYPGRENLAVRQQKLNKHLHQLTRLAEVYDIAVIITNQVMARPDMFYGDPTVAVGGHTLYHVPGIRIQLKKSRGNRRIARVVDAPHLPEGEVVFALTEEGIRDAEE
Kind of series: filter binding.

In series [2] the target is T1, SsoRadA. Put plainly: TLC ATPase assay, [γ-32P]ATP. Type of series: biochemical.
In series [3] the target is T2, SsoRadA (Saccharolobus solfataricus, UniProt Q55075 1-324).
T2 sequence: T1 sequence (Q55075 1-324)
Put plainly: filter binding; 10 mM Mn2+, no ATP; Filter binding: 40 mM HEPES pH 7.0, 50 mM KCl, 10 mM CaCl2, MgCl2 or MnCl2, 20 pmol SsoRadA, 3 uM ATP where included, ssDNA varied; temperature not stated. The note with it: protein: recombinant; single strand.

Series [4] has as its target T2, SsoRadA. Kind of series: filter binding; 10 mM Mg2+, 3 uM ATP; Filter binding: 40 mM HEPES pH 7.0, 50 mM KCl, 10 mM CaCl2, MgCl2 or MnCl2, 20 pmol SsoRadA, 3 uM ATP where included, ssDNA varied; temperature not stated. The conditions noted are these: protein: recombinant; single strand.
The target of series [5] is T2, SsoRadA. Put plainly: filter binding; 10 mM Mn2+, 3 uM ATP; Filter binding: 40 mM HEPES pH 7.0, 50 mM KCl, 10 mM CaCl2, MgCl2 or MnCl2, 20 pmol SsoRadA, 3 uM ATP where included, ssDNA varied; temperature not stated. The conditions noted are these: protein: recombinant; single strand.
Substrate in series [6]: Nc1ncnc2c1ncn2[C@@H]1O[C@H](COP(=O)(O)OP(=O)(O)OP(=O)(O)O)[C@@H](O)[C@H]1O
Kind of series: TLC ATPase assay, initial rates. Type of series: biochemical, Saccharolobus solfataricus. The conditions noted are these: 10 mM Mg2+, 20 μM (nucleotides) φX174 ssDNA, 0.5 μM SsoRadA, 25 mM Tris acetate pH 7.5, 65°C.

For the molecule `Nc1ncnc2c1ncn2[C@@H]1O[C@H](COP(=O)(O)OP(=O)(O)OP(=O)(O)O)[C@@H](O)[C@H]1O` [ATP], the Kd in series [1] worked out at 1130 ± 440 nM.
In series [2], `Nc1ncnc2c1ncn2[C@@H]1O[C@H](CO[P@](=O)(O)O[P@](=O)(O)O[P@@](=O)(O)S)[C@@H](O)[C@H]1O` [ATPγS] displayed an IC50 of 87800 nM.
With `Nc1ncnc2c1ncn2[C@@H]1O[C@H](COP(=O)(O)OP(=O)(O)O)[C@@H](O)[C@H]1O` [ADP], 112000 nM corresponded to half-maximal inhibition in series [2] (IC50).

B1: 63-mer oligonucleotide (ssDNA)
DNA: ACAGCACCAATGAAATCTATTAAGCTCCTCATCGTCCGCAAAAATATCGTCACCTCAAAAGGA
B1: the Kd in series [3] worked out at 82.4 ± 13.2 nM; in series [4] it was 21.3 ± 1.6 nM; in series [5] it was 23.1 ± 14.4 nM.

B2: SsoRadA (Saccharolobus solfataricus P2) (protein)
chain: T1 sequence (Q55075 1-324)
Consider B2, for which, in series [6], the Km stood at 2.3 ± 0.47 µM and the kcat turned out to be 0.0283 ± 0.0015 s⁻¹.
